For one substance, stoichiometry N results are on record in PMC7171172.

For the assay, the target named is Rhodobacter capsulatus formate dehydrogenase subunit FdsA (Rhodobacter capsulatus). In words: cryo-EM structure; single particle analysis of the co-expressed, co-purified RcFDH complex (100 µg/ml), as isolated with 10 mM azide and after 5 min with 2 mM NADH; C2 symmetry imposed; 3.3 Å and 3.2 Å.

Usually stoichiometry N stands for the number of molecules, sites or subunits per partner or assembly. For “Rhodobacter capsulatus formate dehydrogenase subunit FdsA (natural protein)”, the stoichiometry N is 2.
